From US20120195909A1 (BIONOVION HOLDING B V, published 2012)

T1: mouse APRIL (mouse, UniProt Q9D777 96-241, limits assumed)
T1 sequence (looked up): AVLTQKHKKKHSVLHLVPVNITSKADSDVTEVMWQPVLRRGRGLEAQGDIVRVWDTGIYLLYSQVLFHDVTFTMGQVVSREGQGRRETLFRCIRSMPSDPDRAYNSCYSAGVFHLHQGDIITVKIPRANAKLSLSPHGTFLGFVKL

T2: FLAG-hAPRIL (secreted form, supernatant of 293T cells transfected with pCR3-hAPRIL) (human, UniProt O75888 110-250, limits assumed)
T2 construct: Used as cell supernatant; also called FLAG-APRIL; soluble APRIL in conditioned medium; not shown: FLAG tag
T2 sequence (looked up): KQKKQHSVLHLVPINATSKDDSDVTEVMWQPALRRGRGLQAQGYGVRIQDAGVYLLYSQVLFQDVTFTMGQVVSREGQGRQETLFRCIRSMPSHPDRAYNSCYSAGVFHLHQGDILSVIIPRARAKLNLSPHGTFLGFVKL

T3: Recombinant human APRIL (R&D Systems) (human, UniProt O75888 105-250)
T3 construct: Bought protein; also called recombinant APRIL
T3 sequence (looked up): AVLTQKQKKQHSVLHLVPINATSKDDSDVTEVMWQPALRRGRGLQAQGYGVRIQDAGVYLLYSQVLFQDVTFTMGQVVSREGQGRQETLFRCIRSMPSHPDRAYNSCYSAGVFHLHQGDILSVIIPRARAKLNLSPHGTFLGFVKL


Columns and labels:
[1] = target: FLAG-hAPRIL (secreted form, supernatant of 293T cells transfected with pCR3-hAPRIL) (human) (UniProt O75888); experiment: ELISA, FLAG-hAPRIL captured by coated anti-FLAG polyclonal antibody
mouse APRIL = target: T1, mouse APRIL; experiment: BIAcore
[2] = target: T2, FLAG-hAPRIL (secreted form, supernatant …); experiment: ELISA, FLAG-hAPRIL captured by coated anti-FLAG polyclonal antibody
Experimental: Protein-based ELISA experiments using purified hAPRIL.01A and hAPRIL.03A antibodies were performed to determine apparent binding affinities (reported as EC₅₀ values). Binding was compared to mouse anti-hAPRIL IgG1 Aprily-5 (Alexis). Maxisorp 96-well immunoplates (Nunc) were coated with either rabbit anti-FLAG polyclonal antibody (Sigma) or BCMA-Fc (R&D Systems) at 50 ng/well in PBS overnight at 4° C. and blocked with 10% Goat serum/PBST for 1 hour at RT. Plates were washed with PBST 3 times and incubated with supernatant (1:4 in PBS) containing FLAG-hAPRIL for 1 hour at RT. Plates were again washed with PBST 3 times and incubated with hAPRIL.01A, hAPRIL.03A, and Aprily-5 antibodies (10 μg/ml high test with 10-fold dilutions in triplicates) for 1 h at RT. After three washes with PBST, bound antibodies were detected with goat anti-mouse IgG-HRP (1:2,000) (Southern Biotechnology) for 1 hour at RT. Plate was washed three times with PBST, and APRIL-reactivity was visualized with OptiEIA TMB substrate (Becton Dickinson). The concentration for half-maximal binding is reported as a measure of relative binding affinity. When FLAG-hAPRIL was captured by the anti-FLAG antibody (FIG. 2A), EC₅₀ values for hAPRIL.01A, hAPRIL.03A and Aprily-5 were calculated as 2.2, 1.4, and 1.7 nM, respectively. […] In contrast, binding of hAPRIL.03A to the APRIL-BCMA complex was observed.

[3] = target: T2, FLAG-hAPRIL (secreted form, supernatant …); experiment: blocking ELISA: antibody pre-incubated with FLAG-hAPRIL, binding to coated BCMA-Fc (competitor) detected
Experimental: (§1) Blocking abilities of hAPRIL.01A and hAPRIL.03A were confirmed using purified antibodies. Maxisorp 96-well plates were coated with either BCMA-Fc (R&D Systems) or TACI-Fc (R&D Systems) at 50 ng/well overnight at 4° C. and blocked with 10% Goat serum/PBST for 1 hour at RT. FLAG-hAPRIL containing supernatants were pre-incubated with hAPRIL.01A, hAPRIL.03A, and Aprily-5 antibodies (10 μg/ml high test with 10-fold dilutions in triplicates) for 1 h at RT. Plates were washed with PBST 3 times, and bound FLAG-hAPRIL was detected by incubation with 1 μg/ml anti-FLAG BioM2-biotin antibody (Sigma) and 1:2,000 Streptavidin-HRP (Southern Biotechnology) for 1 hour each at RT. After the final PBST wash, APRIL-bound BCMA-Fc was visualized with OptiEIA TMB substrate (BD Biosciences). […] The concentration of half-maximum inhibition (IC₅₀) was determined for hAPRIL.01A as 1.2 and 0.4 nM for BCMA-Fc and TACI-Fc, respectively. The IC₅₀ for hAPRIL.03A to TACI-Fc was determined as 1.3 nM.

[4] = target: T2, FLAG-hAPRIL (secreted form, supernatant …); experiment: blocking ELISA: antibody pre-incubated with FLAG-hAPRIL, binding to coated TACI-Fc (competitor) detected
[5] = target: T3, Recombinant human APRIL (R&D Systems); experiment: bio-light interferometry (Octet), antibody amine-coupled to the biosensor, APRIL at 1 and 2 µg/ml, 1:1 global fit
Experimental: (§2) To further characterize the binding characteristics of the antibodies, each was profiled using bio-light interferometry on the Octet system (ForteBio, Menlo Park, Calif.) to elucidate binding kinetics and calculate equilibrium binding constants. This assay was performed by coupling purified hAPRIL.01A and hAPRIL.03A antibodies to amine-reactive biosensors (Fortebio) using standard amine chemistry. Recombinant human APRIL (R&D Systems) binding to and dissociation from the biosensors was then observed at two concentrations, 1 and 2 μg/ml. Specifically, amine-reactive biosensors were pre-wetted by immersing them in wells containing 0.1M MES pH=5 for 2 minutes. The biosensors were then activated using a 0.1M NHS/0.4M EDC mixture for 5 minutes. hAPRIL.01A and hAPRIL.03A antibodies were coupled by immersing the biosensors in a solution of 5 μg/mL of the antibody for 18 minutes. The biosensor surface was quenched using a solution of 1M ethanolamine pH 8.5 for 7 minutes. Biosensors were equilibrated in PBS for 5 minutes. […] Dissociation was measured after transfer of the biosensors into PBS and monitoring of the interferometry signal for 20 minutes. The observed on and off rates (kobs and kd) were fit using a 1:1 binding global fit model, and the equilibrium binding constant KD was calculated (see Table 1).

[6] = target: T2, FLAG-hAPRIL (secreted form, supernatant …); experiment: blocking ELISA, FLAG-hAPRIL pre-incubated with titrated antibody, binding to coated TACI-Fc detected with anti-FLAG
Experimental: as §1

[7] = target: T3, Recombinant human APRIL (R&D Systems); experiment: bio-light interferometry (Octet), antibody amine-coupled to the biosensor, APRIL at 1 and 2 µg/ml, 1:1 global fit; column printed as kobs
Experimental: as §2

[8] = target: T2, FLAG-hAPRIL (secreted form, supernatant …); experiment: blocking ELISA, FLAG-APRIL supernatant pre-mixed with titrated antibody, binding to BCMA-Fc coated at 1 µg/ml detected with anti-Flag-HRP [left graph]
Experimental: (§3) To study whether the blocking characteristics of hAPRIL.01A and hAPRIL.03A are unique, all known commercially available anti-APRIL antibodies were tested for their ability to block the interaction of FLAG-hAPRIL to BCMA-Fc and TACI-Fc (FIGS. 3A and 3B). Blockade of receptor binding was studied using an ELISA. An ELISA plate was coated with 50 with 100 μl of BCMA-Fc at 1 μg/ml or with 100 μl of TACI-Fc at a concentration of 2 μg/ml in coating buffer and incubated overnight at 4° C. The plate was then washed with PBS/0.2% Tween and then incubated with for 1 hour at 37° C. with 100 μl PBS/5% BSA per well. The plate was then washed four times with PBS/0.2% Tween. In a separate plate APRIL monoclonal antibodies were pre-mixed with APRIL supernatant and incubated for 30 minutes on ice. Conditioned medium containing soluble APRIL was diluted 1 in 4 and mixed with an equal volume of PBS containing the antibodies titrated in doubling dilutions starting with 5 μg/ml. 100 μl of the pre-incubated mix was transferred to the ELISA plate and incubated for 2 hours at 37° C. The plate was then washed four times with PBS/0.2% Tween. Anti-Flag-HRP antibody was then diluted in PBS at a concentration of 1:1000 and then 100 μl of this added to each well and incubated for 1 hour at 37° C. […] The colour was allowed to develop and then the OD at 405 nm read on an ELISA plate reader. […]

[9] = target: T2, FLAG-hAPRIL (secreted form, supernatant …); experiment: blocking ELISA, FLAG-APRIL supernatant pre-mixed with titrated antibody, binding to BCMA-Fc coated at 1 µg/ml detected with anti-Flag-HRP [right graph]
Experimental: as §3

[10] = target: T2, FLAG-hAPRIL (secreted form, supernatant …); experiment: blocking ELISA, FLAG-APRIL supernatant pre-mixed with titrated antibody, binding to coated TACI-Fc (sheet: coated at 1 µg/ml) detected with anti-Flag-HRP [left graph]
Experimental: (§4) To study whether the blocking characteristics of hAPRIL.01A and hAPRIL.03A are unique, all known commercially available anti-APRIL antibodies were tested for their ability to block the interaction of FLAG-hAPRIL to BCMA-Fc and TACI-Fc (FIGS. 3A and 3B). Blockade of receptor binding was studied using an ELISA. […] The plate was then washed with PBS/0.2% Tween and then incubated with for 1 hour at 37° C. with 100 μl PBS/5% BSA per well. The plate was then washed four times with PBS/0.2% Tween. In a separate plate APRIL monoclonal antibodies were pre-mixed with APRIL supernatant and incubated for 30 minutes on ice. Conditioned medium containing soluble APRIL was diluted 1 in 4 and mixed with an equal volume of PBS containing the antibodies titrated in doubling dilutions starting with 5 μg/ml. 100 μl of the pre-incubated mix was transferred to the ELISA plate and incubated for 2 hours at 37° C. The plate was then washed four times with PBS/0.2% Tween. Anti-Flag-HRP antibody was then diluted in PBS at a concentration of 1:1000 and then 100 μl of this added to each well and incubated for 1 hour at 37° C. The plate was then washed four times with PBS/0.2% Tween and then 100 μl of ABTS added to each well (the ABTS was diluted to the ratio 10 ml of reagent plus 5 μl of H₂O₂ made immediately before addition). The colour was allowed to develop and then the OD at 405 nm read on an ELISA plate reader. […]

[11] = target: T2, FLAG-hAPRIL (secreted form, supernatant …); experiment: blocking ELISA, FLAG-APRIL supernatant pre-mixed with titrated antibody, binding to coated TACI-Fc (sheet: coated at 1 µg/ml) detected with anti-Flag-HRP [right graph]
Experimental: as §4

EC50 [1] | binding result (mouse APRIL) | EC50 [2] | IC50 [3] | IC50 [4] | Kd [5] | koff [5] | IC50 (read off the curve) [6] | kon [7] | IC50 (read off the curve) [8] | IC50 (read off the curve) [9] | IC50 (read off the curve) [10] | IC50 (read off the curve) [11] | Molecule
1.7 nM |  |  |  |  |  |  |  |  |  |  |  |  | mouse anti-hAPRIL IgG1 Aprily-5 (Alexis) (antibody)
 | no binding | 2.2 nM | 1.2 nM | 0.4 nM | 0.753 nM | 3.69e-05 s⁻¹ | ~0.2 µg/mL | 48900 M⁻¹ s⁻¹ | ~0.8 µg/mL | ~0.9 µg/mL | ~0.7 µg/mL | ~0.7 µg/mL | hAPRIL.01A (antibody, IgG1, V domains shown, Mouse antibody from a hybridoma, IgG1, kappa) VH: EVQLQQSGPELVKPGASVKMSCKASGYTFTSYVMHWVKQKPGQGLEWIGYINPYNDAPKYNEKFKGKATVTSDKSSGTAYMELSSLTSEDSAVYYCARGLGYALYYAMDYWGQGTSVTVSS VL: DIVMTQSQKFKSTSVGDRVSVTCKASQNVGNNVAWYQQKAGQSPKALISSASNRDSGVPDRFTGSGSGTDFTLTISNVQSEDLADYFCQQYNIYPFTFGSGTELEIK
